Data published in PMC10184537 (ACS Nano, 2023).

Biological target: murine urokinase-type plasminogen activator (murine, UniProt P06869)
Experiment: […]

murine urokinase-type plasminogen activator, sequence (P06869 21-433): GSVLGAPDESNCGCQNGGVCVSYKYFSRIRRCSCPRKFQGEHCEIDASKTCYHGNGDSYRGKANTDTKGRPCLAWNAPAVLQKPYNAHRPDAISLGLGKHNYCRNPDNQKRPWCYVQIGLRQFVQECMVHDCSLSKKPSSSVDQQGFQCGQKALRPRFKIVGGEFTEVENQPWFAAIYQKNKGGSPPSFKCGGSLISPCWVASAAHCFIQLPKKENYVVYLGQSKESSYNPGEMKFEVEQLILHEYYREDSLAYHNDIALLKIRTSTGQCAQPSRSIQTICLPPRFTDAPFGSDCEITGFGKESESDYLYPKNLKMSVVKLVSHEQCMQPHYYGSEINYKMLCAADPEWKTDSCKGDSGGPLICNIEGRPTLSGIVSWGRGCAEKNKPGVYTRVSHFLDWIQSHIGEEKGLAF

B1: nb22 nanobody (VHH)
VHH: QVQLQESGGGLVQAGGSLRLSCAASGRTFSSYVMGWFRQAPGKEREFVAAISWSGGSTNYADSVKGRFTISRDNAKNTVYLQMNSLKPEDTAVYYCAADLASSRDVSSWYWGQGTQVTVSS
B1: binds.
